From patent publication US20110086026A1 (ROCHE PALO ALTO, published 2011)

T1: hIL-13Rα1:hFc chimeric protein (R&D Systems, UK) (human, UniProt P78552 22-343)
T1 construct: extracellular domain; Bought; also called chimeric hIL-13Rα1:hFc; not shown: human Fc (hFc) of the bought chimera
T1 sequence (looked up): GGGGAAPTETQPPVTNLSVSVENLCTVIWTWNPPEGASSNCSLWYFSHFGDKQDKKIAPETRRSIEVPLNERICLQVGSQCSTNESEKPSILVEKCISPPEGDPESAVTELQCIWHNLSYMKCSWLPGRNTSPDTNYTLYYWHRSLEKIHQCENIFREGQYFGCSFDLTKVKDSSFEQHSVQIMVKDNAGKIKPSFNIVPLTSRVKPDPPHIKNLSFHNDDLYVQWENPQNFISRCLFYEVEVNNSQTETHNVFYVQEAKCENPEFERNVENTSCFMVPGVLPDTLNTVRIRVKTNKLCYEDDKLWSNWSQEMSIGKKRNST

T2: extracellular domain of hIL-13Rα1 cleaved from hIL-13Rα1:hFc chimeric protein (human, UniProt P78552 22-343)
T2 construct: extracellular domain; also called Cleaved hIL-13Rα1 molecules (MW 40 kDa)
T2 sequence (looked up): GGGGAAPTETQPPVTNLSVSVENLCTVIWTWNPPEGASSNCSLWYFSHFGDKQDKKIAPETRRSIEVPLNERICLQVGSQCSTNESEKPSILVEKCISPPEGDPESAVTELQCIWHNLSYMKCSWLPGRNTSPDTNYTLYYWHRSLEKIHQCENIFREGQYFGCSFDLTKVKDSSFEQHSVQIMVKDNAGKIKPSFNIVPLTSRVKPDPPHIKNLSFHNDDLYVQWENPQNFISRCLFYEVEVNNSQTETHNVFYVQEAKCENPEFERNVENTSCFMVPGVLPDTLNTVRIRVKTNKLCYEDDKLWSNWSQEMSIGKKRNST

T3: hIL-13Rα2:hFc chimeric protein (R&D Systems, UK) (human, UniProt Q14627 27-343)
T3 construct: Bought; not shown: human Fc (hFc) of the bought chimera
T3 sequence (looked up): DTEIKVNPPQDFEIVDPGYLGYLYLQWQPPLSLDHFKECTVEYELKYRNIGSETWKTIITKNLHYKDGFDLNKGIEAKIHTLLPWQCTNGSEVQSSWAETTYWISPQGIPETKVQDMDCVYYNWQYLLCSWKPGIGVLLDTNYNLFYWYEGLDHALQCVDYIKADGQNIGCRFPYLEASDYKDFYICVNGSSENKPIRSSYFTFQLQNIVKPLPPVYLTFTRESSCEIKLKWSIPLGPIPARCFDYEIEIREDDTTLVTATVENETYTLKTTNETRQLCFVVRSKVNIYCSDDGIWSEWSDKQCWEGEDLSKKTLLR

T4: hIL-4Rα:hFc chimeric protein (R&D Systems, UK) (human, UniProt P24394 26-232)
T4 construct: Bought; not shown: human Fc (hFc) of the bought chimera
T4 sequence (looked up): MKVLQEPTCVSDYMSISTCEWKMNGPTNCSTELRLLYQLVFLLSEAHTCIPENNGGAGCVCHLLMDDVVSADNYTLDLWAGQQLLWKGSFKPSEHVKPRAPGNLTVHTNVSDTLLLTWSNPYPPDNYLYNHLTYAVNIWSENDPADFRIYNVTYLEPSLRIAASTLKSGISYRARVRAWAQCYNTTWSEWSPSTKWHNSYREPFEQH


Key:
[1] = target: T1, hIL-13Rα1:hFc chimeric protein (R&D …); test: SPR Biacore 3000, HuMab captured by anti-hFcγ, hIL-13Rα1:hFc as analyte, 1:1 Langmuir model
Experimental: For interaction analysis a Biacore 3000 instrument was used. As running and reaction buffer, HBS-P (10 mM HEPES, 150 mM NaCl, 0.005% polysurfactant P, pH 7.4) at 25° C. was used. Capturing molecules (goat anti-human-IgG, Fcγ specifc) were amine-coupled at a concentration of 20 μg/ml at a flow rate of 5 μl/min for 20 minutes. HuMabs were injected at a concentration of 1 μg/ml at a flow rate of 10 μl/min for 1 minute. Blocking of the free goat anti human IgG, Fcγ was achieved by injecting human gamma globulin at 500 nM and 30 μl/min for 3 minutes. Analyte (hIL-13Rα1:hFc chimeric protein) was injected for two minutes at five concentrations between 5.63 nM and 90 nM and washed with HBS-P for five minutes. Regeneration of the surface was accomplished by two injections of 100 mM HCl for 1 min each. The chip, assay format and sequence of injections and kinetic data correspond to the description in table 2. Negative control data (e.g. buffer curves) were subtracted from sample curves for correction of system intrinsic baseline drift and for noise signal reduction. BiaEvaluation version 4.01 was used for analysis of sensorgrams and for calculation of affinity data. Kinetic data were calculated by fitting kinetic data to a 1:1 Langmuir binding model (Table 2).

[2] = target: T2, extracellular domain of hIL-13Rα1 …; test: SPR Biacore 3000, CM5 chip, HuMab captured by anti-hFcγ, cleaved hIL-13Rα1 as analyte, bivalent analyte model
Experimental: In these experiments, the affinity of the original IgG1 derived from hybridoma was compared with the affinities of the recombinant variant IgG1-Ala-Ala. For interaction analysis, a Biacore 3000 instrument was used. Running and reaction buffer was HBS-P (10 mM HEPES, 150 mM NaCl, 0.005% polysurfactant P, pH 7.4) at 25° C. Capturing antibody molecules (anti-hFcγ) were amine-coupled at a concentration of 20 μg/ml at a flow rate of 5 μl/min for 20 minutes. HuMabs were injected at concentrations of 10 μg/ml at a flow rate of 10 μl/min for 1 minute. Cleaved hIL-13 Rα1 molelcules (analyte) were injected for five minutes at eight concentrations between 1.56 nM and 200 nM and washed with HBS-P for five minutes. Regeneration of the surface was accomplished by two injections of 100 mM HCl for 1 min each. The chip, assay format and sequence of injections and kinetic data correspond to the description in Table 4. Kinetic data were calculated by fitting kinetic data to a bivalent analyte binding model.

[3] = target: T1, hIL-13Rα1:hFc chimeric protein (R&D …); test: ELISA, immobilized hu IL-13Ra1:Fc, detection with anti-human kappa-POD, OD 405
[4] = target: T3, hIL-13Rα2:hFc chimeric protein (R&D …); test: ELISA, immobilized hIL-13Rα2:hFc, detection with anti-human kappa-POD, OD 405
Experimental: (§1) Chimeric proteins hIL-13Rα2:hFc and hIL-4Rα:hFc (R&D Systems, UK) were dissolved in PBS (1 μg/ml) and allowed to adsorb to microtiter plates (NUNC Maxisorb) by incubation over night at 4° C. After washing the plates with washing buffer (WB=0.9% NaCl; 0.1% Tween® 20) unspecific binding sites were blocked by addition of 100 μl incubation buffer (IB=PBS with 1% crotein C and 0.1% Tween® 20) and incubation for 30 min at room-temperature (RT). Then serially diluted HuMab and control antibodies (100 μl/well; dilutions in IB) were added and incubated for 1 hour at RT. The plates were again washed and bound antibody was detected by incubation with peroxidase conjugated rabbit anti-human kappa (DAKO, Denmark) in a final dilution of 1:500 in IB. After incubation for 1 h at RT and a subsequent washing step, the plates were developed with ready-to-use ABTS® solution (Roche Diagnostics GmbH, DE) at RT in the dark. Absorbance was measured at 405 nm after absorbance of the highest concentration reached a sufficient OD.

[5] = target: T4, hIL-4Rα:hFc chimeric protein (R&D …); test: ELISA, immobilized hIL-4Rα:hFc, detection with anti-human kappa-POD, OD 405
Experimental: as §1

[6] = target: FcγRIIIa (CD16) on Natural Killer (NK) cells (UniProt P08637); test: FACS on NK cells in PBMC, 20 µg/ml, with 20 µg/ml of the blocking anti-CD16 clone 3G8 as competitor
FcγRIIIa (CD16) on Natural Killer (NK) cells, sequence (P08637 17-254 limits assumed): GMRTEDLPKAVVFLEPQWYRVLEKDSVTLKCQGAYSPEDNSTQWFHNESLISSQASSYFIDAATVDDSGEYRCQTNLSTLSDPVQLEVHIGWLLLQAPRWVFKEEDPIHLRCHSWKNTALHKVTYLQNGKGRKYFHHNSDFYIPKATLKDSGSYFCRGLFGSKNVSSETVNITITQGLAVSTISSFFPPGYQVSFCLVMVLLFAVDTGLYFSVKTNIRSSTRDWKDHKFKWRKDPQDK

Row | Kd [1] | koff [1] | kon [1] | Kd [2] | EC50 (read off the curve) [3] | binding result [4] | binding result [5] | Binder | Bmax (MFI) [6]
1 | 0.018 nM | 3.12e-06 s⁻¹ | 173000 M⁻¹ s⁻¹ | 2.7 nM | ~0.4 nM | no binding (tested: 3.3 nM) | no binding (tested: 3.3 nM) | HuMab LC5002-005 (antibody, V domains shown, Only the variable domains are tied to this antibody; also called hu-MAB<h-IL-13Ralpha>LC.5002-005 (DSM ACC2711)) VH: EVQVLDSGGGLVQPGGSLRLSCTASGFTFRLYTMSWVRQTPGRGLEWVSGISGSGLSTYFADSVKGRFTISRDNSKNTVYLQMNSLRAEDTAVYYCAKEGDWIYFDSWGQGTLVIVSS VL: DIQMTQSPSSLSASVGDRVTITCRASQGISSWLAWYQQKPEKAPKSLIYAASSLQSGVPSRFSGSGSGTDFTLTISSLQPEDFATYYCQQYNSHPPTFGQGTKLEIK | 260 MFI
2 | < 0.0065 nM | 1.4e-06 s⁻¹ | 210000 M⁻¹ s⁻¹ | – | ~0.4 nM | no binding (tested: 3.3 nM) | no binding (tested: 3.3 nM) | HuMab LC5002-003 (antibody, V domains shown, Human IgG1 kappa from a HuMab mouse hybridoma; Only the variable domains are tied to this antibody; also called LC50002-003; hu-MAB<h-IL-13Ralpha>LC.5002-003 (DSM ACC2710)) VH: EVQLLESGGDLIQPGGSLRLSCAASGFTFNIYAMNWVRQAPGKGLEWVSVISGRGITTYYADSVKGRFTISRDNSKNTLYLQMDSLRAEDTAVYYCAKGSSYWTDFDYWGQGTLVTVSS VL: DIQMTQSPSSLSASVGDRVTITCRASQGISSWLAWYQQKPEKAPKSLIYAASSLQSGVPSRFSGSGSGTDFTLTISSLQPEDFATYYCQQYNSYPWTFGQGTKVEIK | –
3 | < 0.0084 nM | 1e-06 s⁻¹ | 119000 M⁻¹ s⁻¹ | – | – | – | – | HuMab LC5002-007 (antibody, human IgG1, V domains shown, Human IgG1 kappa from a HuMab mouse hybridoma; Only the variable domains are tied to this antibody; also called hu-MAB<h-IL-13R alpha>LC.5002-007 (DSM ACC2712)) VH: QVQLVQSGAEVKKPGSSVKVSCKVSGGTFSSYAFSWVRQAPGQGLEWMGRIIPILGRTNYAQKFQGRVTITADKSTSTAYMEVSSLRSEDTAVYYCAREGETLDYFYYGMDVWGQGTTVTVSS VL: EIVLTQSPGTLSLSPGERATLSCRASQSVSSSYLAWYQQKPGQAPRLLIYGASSRAIGIPDRFSGSGSGTDFTLTISRLEPEDFAVYYCQHYGSSLTFGGGTKVEIK | –
